# Data as given in publication PMC8881592.
# Assay: time-resolved SAXS; rSslE 0.7 mg/ml in 20 mM citrate-phosphate buffer pH 4.4, 25 °C, stirred and circulated, data every 30 min over 11 h; COSMiCS decomposition into monomer and aggregate
# Conditions: other: time-resolved SAXS
substance,measurement,value
recombinant SslE from E. coli W (rSslE; residues 67 to 1497),molar fraction of the aggregated species after 30 min,the aggregated species already represented 50% of the molar fraction
